Reference: US20160024155A1 (published 2016)
Read-outs that look alike come from different tables or passages of the source.

Key:
[1] = target: T1, A/South Carolina/1/1918 (H1N1) hemagglutinin ectodomain (Influenza A virus A/South …)
[2] = target: T1, A/South Carolina/1/1918 (H1N1) …; remark: listed apart in the source
[3] = target: T1, A/South Carolina/1/1918 (H1N1) …; remark: listed apart in the source
[4] = target: T1, A/South Carolina/1/1918 (H1N1) …; remark: listed apart in the source

B1: HB36.1 (Asp47Ser) (designed binder)
chain: MSNAMDGQQLNRLLLEWIGAWDPFGLGKDAYDVEAEAVLQAVYETESAFDLAMRIMWIYAFAFNRPIPFPHAQKLARRLLELKQAASSPLPLE
Question: With B1 as the binder, how does the “fold increase in binding affinity relative to HB36” value [1] read?
Answer: ~40 fold

Question: And the Kd [2]?
Answer: 5 nM

Question: And the Kd [3]?
Answer: 2 to 5 nM

Question: And the “fold increase in binding affinity relative to original design (HB36)” value [3]?
Answer: > 10 fold

B2: HB80.1 (Met26Thr, Asn36Lys) (designed binder)
chain: MASTRGSGRPWDFSENLAFELALAFTNKDTPDRWAKVAQYVSGRTPEEVKKHYEILVEDIKYIESGKVPFPNYRTTGGNMKTDEKRFRNLKIRLE
Question: Which results are given for B2?
Answer: Kd [2]: 7.5 nM; Kd [4]: 7.5 nM
